# Data: IntAct's records for PubMed 11604410
# B1: Serine protease HTRA2, mitochondrial (Mus musculus), Q9JIY5 (parent)
# chain: MAALKAGRGANWSLRAWRALGGIFWRKPPLLAPDLRALLTSGTPDSQIWMTYGTPSLPAQVPEGFLASRADLTSRTPDLWARLNVGTSGSSDQEARRSPGSRRREWLAVAVGAGGAVVLLLWGWGRGLSTVLAAVPAPPPTSPRSQYNFIADVVEKTAPAVVYIEILDRHPFSGREVPISNGSGFVVASDGLIVTNAHVVADRRRVRVRLPSGDTYEAMVTAVDPVADIATLRIQTKEPLPTLPLGRSADVRQGEFVVAMGSPFALQNTITSGIVSSAQRPARDLGLPQNNVEYIQTDAAIDFGNSGGPLVNLDGEVIGVNTMKVTAGISFAIPSDRLREFLHRGEKKNSWFGTSGSQRRYIGVMMLTLTPSILIELQLREPSFPDVQHGVLIHKVILGSPAHRAGLRPGDVILAIGEKLAQNAEDVYEAVRTQSQLAVRIRRGSETLTLYVTPEVTE
# B2: Diablo IAP-binding mitochondrial protein (Mus musculus), Q9JIQ3 (parent)
# chain: MAALRSWVTRSVCSLFRYRQRFPVLANSKKRCFSELIKPWHKTVLTGFGMTLCAVPIAQKSEPQSLSNEALMRRAVSLVTDSTSTFLSQTTYALIEAITEYTKAVYTLVSLYRQYTSLLGKMNSQEEDEVWQVIIGARVEMTSKQQEYLKLETTWMTAVGLSEMAAEAAYQTGADQASITARNHIQLVKSQVQEVRQLSQKAETKLAEAQTKELHQKAQEVSDEGADQEEEAYLRED
# Variants of: B1
# Conditions: with xiap_human XIAP
row,effect of a mutation on the interaction,Variant
1,increasing interaction,Y147I

# Variants of: B1
# Conditions: with xiap_human XIAP
# Remark: another data set of the same source
row,effect of a mutation on the interaction,Variant
1,disrupting interaction,R144G

# Variants of: B2
# Conditions: with xiap_mouse Xiap
row,effect of a mutation on the interaction,Variant
1,disrupting interaction,A54G
